# Test results reported in the supplement of paper PMC9112550, “Optimization of the antimicrobial peptide Bac7 by deep mutational scanning” (BMC Biology, 2022).
# Tested on: Escherichia coli TOP10
# Test: shrunken log2 fold change of peptide-encoding DNA abundance (4.5 h post-induction vs induction); higher = less antimicrobial activity (less host growth inhibition)
# Conditions: time post-induction: 4.5 h; library: site-saturation at positions 5, 18, 19, 20
# 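Also: peptides expressed intracellularly from a pBAD plasmid library in pooled LB shake-flask culture, induced with 0.3% L-arabinose, DNA abundance read by NGS, three biological replicates, DESeq2 with apeglm shrinkage.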
row,Sequence,shrunken log2 fold change
1,RRIRDRPPRLPRPRPRPVKTPRP,0.0145
2,RRIRIRPPRLPRPRPRPWKYPRP,-0.254
3,RRIRKRPPRLPRPRPRPDFDPRP,-0.183
4,RRIRERPPRLPRPRPRPNFRPRP,-0.479
5,RRIRQRPPRLPRPRPRPTEYPRP,-0.401
6,RRIRERPPRLPRPRPRPFQRPRP,-0.0653
7,RRIRGRPPRLPRPRPRPFAMPRP,0.68
8,RRIRDRPPRLPRPRPRPISSPRP,0.00884
9,RRIRERPPRLPRPRPRPRSKPRP,0.00172
10,RRIRHRPPRLPRPRPRPMFKPRP,-0.625
11,RRIRLRPPRLPRPRPRPQAHPRP,-0.217
12,RRIRTRPPRLPRPRPRPLGYPRP,-0.213
13,RRIRQRPPRLPRPRPRPGQQPRP,-0.0212
14,RRIRNRPPRLPRPRPRPGLTPRP,-0.0698
15,RRIRTRPPRLPRPRPRPQKGPRP,-0.00821
16,RRIRLRPPRLPRPRPRPCLMPRP,-0.266
17,RRIRMRPPRLPRPRPRPSLQPRP,0.385
18,RRIRGRPPRLPRPRPRPPARPRP,1.2
19,RRIRYRPPRLPRPRPRPVVPPRP,-0.0502
20,RRIRWRPPRLPRPRPRPHRVPRP,-0.0781
21,RRIRARPPRLPRPRPRPYFYPRP,-0.619
22,RRIRWRPPRLPRPRPRPELFPRP,-0.0123
23,RRIRTRPPRLPRPRPRPQRWPRP,0.137
24,RRIRLRPPRLPRPRPRPDLDPRP,-0.0167
25,RRIRPRPPRLPRPRPRPLCGPRP,0.623

row,Sequence,shrunken log2 fold change
1,RRIRCRPPRLPRPRPRPQHFPRP,-0.0667
2,RRIRVRPPRLPRPRPRPKHLPRP,0.0232
3,RRIRSRPPRLPRPRPRPFDSPRP,-0.0702
4,RRIRYRPPRLPRPRPRPDGLPRP,-0.528
5,RRIRHRPPRLPRPRPRPFIMPRP,-0.505
6,RRIRMRPPRLPRPRPRPVPHPRP,0.537
7,RRIRPRPPRLPRPRPRPVQHPRP,0.278
8,RRIRWRPPRLPRPRPRPMHLPRP,-0.317
9,RRIRQRPPRLPRPRPRPMFHPRP,-0.815
10,RRIRHRPPRLPRPRPRPIQQPRP,-0.15
11,RRIRRRPPRLPRPRPRPWLTPRP,-0.245
12,RRIRIRPPRLPRPRPRPIHMPRP,-0.379
13,RRIRERPPRLPRPRPRPEKKPRP,-0.0578
14,RRIRQRPPRLPRPRPRPWPTPRP,0.00213
15,RRIRQRPPRLPRPRPRPMAFPRP,-0.0854
16,RRIRLRPPRLPRPRPRPTKSPRP,0.127
17,RRIRTRPPRLPRPRPRPFAWPRP,-0.0156
18,RRIRWRPPRLPRPRPRPWCMPRP,-0.0174
19,RRIRSRPPRLPRPRPRPTAAPRP,1.03
20,RRIRQRPPRLPRPRPRPEGLPRP,-0.0407
21,RRIRSRPPRLPRPRPRPRPVPRP,1.01
22,RRIRIRPPRLPRPRPRPFKIPRP,-0.144
23,RRIRGRPPRLPRPRPRPIPGPRP,0.107
24,RRIRTRPPRLPRPRPRPMPGPRP,0.106
25,RRIRSRPPRLPRPRPRPHIVPRP,-0.243

row,Sequence,shrunken log2 fold change
1,RRIRRRPPRLPRPRPRPFAHPRP,-0.00279
2,RRIRERPPRLPRPRPRPFYEPRP,-0.498
3,RRIRLRPPRLPRPRPRPPPTPRP,1.48
4,RRIRKRPPRLPRPRPRPLRHPRP,0.35
5,RRIRFRPPRLPRPRPRPNFNPRP,-0.554
6,RRIRPRPPRLPRPRPRPLTDPRP,0.111
7,RRIRRRPPRLPRPRPRPWFRPRP,0.0331
8,RRIRHRPPRLPRPRPRPHDKPRP,-0.293
9,RRIRNRPPRLPRPRPRPQLGPRP,-0.124
10,RRIRKRPPRLPRPRPRPTAIPRP,0.444
11,RRIRNRPPRLPRPRPRPHTPPRP,-0.317
12,RRIRWRPPRLPRPRPRPPQGPRP,0.226
13,RRIRCRPPRLPRPRPRPKQLPRP,-0.0668
14,RRIRSRPPRLPRPRPRPCWRPRP,0.106
15,RRIRLRPPRLPRPRPRPQEGPRP,0.0327
16,RRIRERPPRLPRPRPRPYMNPRP,-0.602
17,RRIRIRPPRLPRPRPRPNKGPRP,-0.137
18,RRIRFRPPRLPRPRPRPIMPPRP,-0.127
19,RRIRGRPPRLPRPRPRPHSRPRP,0.26
20,RRIRVRPPRLPRPRPRPCHMPRP,-0.19
21,RRIRCRPPRLPRPRPRPGIQPRP,-0.248
22,RRIRSRPPRLPRPRPRPKGGPRP,0.149
23,RRIRMRPPRLPRPRPRPSEFPRP,-0.143
24,RRIRHRPPRLPRPRPRPMMLPRP,-0.286
25,RRIRQRPPRLPRPRPRPNRDPRP,-0.178
